Laboratory results from paper PMC10517255, “Cysteine Enrichment Mediates Co-Option of Uricase in Reptilian Skin and Transition to Uricotelism” (Molecular Biology and Evolution, 2023).
Residue numbers refer to the chain shown, from its start. Values belong to the molecule of their own block, whether it stands above or below them.

Legend:
GgUox [1] = target: T1, GgUox (Gallus gallus, UniProt A0A8V0ZED1, Y230H); test: uricase activity, specific activity; type: biochemical; conditions: activity relative to wild type
T1 construct: gene LOC101747367; uricase-like CDS in pET28 (NheI/XhoI), N-terminal His-tag with thrombin site (uncleaved for crystals)
T1 sequence (A0A8V0ZED1 1-320 Y230H): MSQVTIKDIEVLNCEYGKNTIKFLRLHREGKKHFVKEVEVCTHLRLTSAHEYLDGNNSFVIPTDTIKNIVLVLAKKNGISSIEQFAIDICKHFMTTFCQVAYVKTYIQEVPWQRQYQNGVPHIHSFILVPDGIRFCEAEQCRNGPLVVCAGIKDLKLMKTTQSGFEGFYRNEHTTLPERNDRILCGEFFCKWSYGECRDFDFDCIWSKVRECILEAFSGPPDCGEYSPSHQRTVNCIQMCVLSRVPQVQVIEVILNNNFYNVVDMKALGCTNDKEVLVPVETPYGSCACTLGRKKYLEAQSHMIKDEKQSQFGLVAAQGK

DrUox = target: T2, DrUox (Danio rerio, UniProt Q6DG85); test: stopped flow, single turnover, diode array; type: biochemical; conditions: 35 μM enzyme, 25 μM urate, 100 mM potassium phosphate pH 7.6, 25°C
T2 construct: gene uox; enzyme described in Marchetti et al. 2016; tetrameric, about 150 kDa
T2 sequence (Q6DG85 1-298): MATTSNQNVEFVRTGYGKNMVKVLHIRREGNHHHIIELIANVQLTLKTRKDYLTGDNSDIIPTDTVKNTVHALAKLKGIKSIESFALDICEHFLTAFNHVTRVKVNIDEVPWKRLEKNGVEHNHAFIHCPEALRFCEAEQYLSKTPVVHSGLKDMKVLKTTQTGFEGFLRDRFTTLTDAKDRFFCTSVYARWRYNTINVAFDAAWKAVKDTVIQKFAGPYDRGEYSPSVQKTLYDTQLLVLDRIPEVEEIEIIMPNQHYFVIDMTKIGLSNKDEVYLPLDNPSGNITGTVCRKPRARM

[2] = target: Gallus gallus Uox (cysteine-rich urate oxidase) (Gallus gallus); test: atomic force microscopy; particle volume of the enzyme on mica, native or pre-incubated with βME, 100 nM protein in 4 mM HEPES pH 7.4, 10 mM NaCl, 2 mM MgCl2, imaged in air, tapping mode
[3] = target: Gallus gallus Uox (cysteine-rich urate oxidase) (Gallus gallus); test: SEC; purified GgUox, single peak (supplementary fig. S4B)
[4] = target: Gallus gallus Uox (cysteine-rich urate oxidase) (Gallus gallus); test: crystal structure; GgUox with uncleaved N-terminal His tag in complex with the inhibitor 8-azaxanthine; space groups C222_(1) and P2_(1)2_(1)2_(1); reduced, and oxidised by a 100 mM H2O2 soak for 15 min
GgUox [5] = target: T3, GgUox (Gallus gallus, UniProt A0A8V0ZED1); test: X-ray crystallography, […]-2.[…] Å, reduced and H2O2-oxidized crystals; type: binding; conditions: active site at dimer interface; uncleaved His-tag; space groups P2_12_12_1 and C222_1
T3 construct: gene LOC101747367; uricase-like CDS in pET28 (NheI/XhoI), N-terminal His-tag with thrombin site (uncleaved for crystals)
T3 sequence (A0A8V0ZED1 1-320): T1 sequence (A0A8V0ZED1 1-320 Y230H) with H230Y

[6] = target: the molecule itself; test: atomic force microscopy; particle volume of the enzyme on mica, native or pre-incubated with βME, 100 nM protein in 4 mM HEPES pH 7.4, 10 mM NaCl, 2 mM MgCl2, imaged in air, tapping mode
purified protein = substrate: O=c1[nH]c(=O)c2[nH]c(=O)[nH]c2[nH]1; test: purified protein; type: biochemical, Gallus gallus; conditions: 100 mM potassium phosphate pH 7.6, 25°C, 4.1 µM GgUox, 1 µM HIUase, 2-140 μM urate

Molecule: O=c1[nH]c(=O)c2[nH]c(=O)[nH]c2[nH]1 [uric acid]
uricase activity, specific activity (GgUox [1]): we mutated the tyrosine in the active site of GgUox to either histidine (Y230H)
stopped flow, single turnover, diode array (DrUox): the same experiment was carried out with DrUox for comparison

stoichiometry N [2]: 4
stoichiometry N [3]: 4
stoichiometry N [4]: 4
Molecule: Gallus gallus Uox (cysteine-rich urate oxidase) (enzyme)

Molecule: O=c1[nH]c(=O)c2nn[nH]c2[nH]1 [8-azaxanthine]
X-ray crystallography, 1.7-2.1 Å, reduced and H2O2-oxidized crystals (GgUox [5]): We crystallized GgUox in complex with its AZA inhibitor in two space groups

B1: Danio rerio Uox (enzyme, UniProt Q6DG85 1-298, looked up)
chain: T2 sequence (Q6DG85 1-298)
notes: Danio rerio urate oxidase (DrUox), as in Marchetti et al. 2016; also called DrUox; uricase
stoichiometry N [6]: 4

B2: GgUox (Gallus gallus) (protein)
chain: T1 sequence (A0A8V0ZED1 1-320 Y230H) with H230Y
notes: uricase-like CDS in pET28 (NheI/XhoI), N-terminal His-tag with thrombin site (uncleaved for crystals)
Km (purified protein): 12.5 µM
kcat (purified protein): 0.03 s⁻¹
